This is an account of results in US20070287170A1 (Merck KGaA, published 2007).

B2: DI-KS(AG(f0) SEED)-IL-2 heavy chain with DI-KS light chain (antibody)
heavy: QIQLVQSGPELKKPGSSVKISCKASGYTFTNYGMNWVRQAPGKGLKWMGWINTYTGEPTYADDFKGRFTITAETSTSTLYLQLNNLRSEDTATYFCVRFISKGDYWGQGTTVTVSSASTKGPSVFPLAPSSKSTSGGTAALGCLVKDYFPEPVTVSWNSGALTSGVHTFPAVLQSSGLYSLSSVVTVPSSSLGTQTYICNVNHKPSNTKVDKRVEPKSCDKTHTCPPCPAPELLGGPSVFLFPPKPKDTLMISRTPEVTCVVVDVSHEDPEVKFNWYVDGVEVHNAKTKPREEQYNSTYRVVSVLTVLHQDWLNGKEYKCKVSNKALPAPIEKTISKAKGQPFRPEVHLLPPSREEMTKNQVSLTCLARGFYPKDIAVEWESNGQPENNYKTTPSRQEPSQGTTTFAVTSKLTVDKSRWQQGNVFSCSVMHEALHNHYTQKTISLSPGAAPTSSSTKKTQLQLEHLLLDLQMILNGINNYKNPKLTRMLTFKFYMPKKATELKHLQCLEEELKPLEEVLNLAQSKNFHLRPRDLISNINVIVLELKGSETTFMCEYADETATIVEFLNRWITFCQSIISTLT
light: QIVLTQSPASLAVSPGQRATITCSASSSVSYILWYQQKPGQPPKPWIFDTSNLASGFPSRFSGSGSGTSYTLTINSLEAEDAATYYCHQRSGYPYTFGGGTKVEIKRTVAAPSVFIFPPSDEQLKSGTASVVCLLNNFYPREAKVQWKVDNALQSGNSQESVTEQDSKDSTYSLSSTLTLSKADYEKHKVYACEVTHQGLSSPVTKSFNRGEC
notes: also called heavy chain-IL2

Series [1] deals with B2. The series can be described thus: co-expression in mammalian cells, non-reducing SDS-PAGE (heterodimer).
Series [2] deals with the molecule itself. The series can be described thus: co-expression in mammalian cells, non-reducing SDS-PAGE (homodimer).
Series [3] concerns the molecule itself. The experiment in a line: co-expression of both heavy chains and the light chain in mammalian cells, non-reducing SDS-PAGE.
Series [4] concerns the molecule itself. The series can be described thus: co-expression with Fc(AG(f0) SEED)-IL2 in NS/0 cells, non-reducing SDS-PAGE (homodimer).
For series [5], the target named is T1, Fc(AG(f0) SEED)-IL2.
T1 construct: also called "Full" AG SEED-IL-2; Fc(AG SEED)-IL2
The experiment in a line: co-expression in NS/0 cells, SDS-PAGE (figure legend).

Series [6] concerns the molecule itself. The experiment in a line: co-expression with Fc(AG(s0) SEED)-IL2 in NS/0 cells, non-reducing SDS-PAGE (homodimer).
Series [7] deals with T2, Fc(AG(s0) SEED)-IL2 (human).
T2 construct: It was put together from the cloning scheme (Ngo MIV/Sma I fragment exchange in the pdCs Fc-IL2 vector); also called "Surface" AG SEED-IL-2; AG SURF
The experiment in a line: co-expression in NS/0 cells, SDS-PAGE (figure legend).

B1: DI-KS(GA(f0) SEED) heavy chain with DI-KS light chain (antibody)
heavy: QIQLVQSGPELKKPGSSVKISCKASGYTFTNYGMNWVRQAPGKGLKWMGWINTYTGEPTYADDFKGRFTITAETSTSTLYLQLNNLRSEDTATYFCVRFISKGDYWGQGTTVTVSSASTKGPSVFPLAPSSKSTSGGTAALGCLVKDYFPEPVTVSWNSGALTSGVHTFPAVLQSSGLYSLSSVVTVPSSSLGTQTYICNVNHKPSNTKVDKRVEPKSCDKTHTCPPCPAPELLGGPSVFLFPPKPKDTLMISRTPEVTCVVVDVSHEDPEVKFNWYVDGVEVHNAKTKPREEQYNSTYRVVSVLTVLHQDWLNGKEYKCKVSNKALPAPIEKTISKAKGQPREPQVYTLPPPSEELALNELVTLTCLVKGFYPSDIAVEWLQGSQELPREKYLTWAPVLDSDGSFFLYSILRVAAEDWKKGDTFSCSVMHEALHNHYTQKSLDRSPGK
light: QIVLTQSPASLAVSPGQRATITCSASSSVSYILWYQQKPGQPPKPWIFDTSNLASGFPSRFSGSGSGTSYTLTINSLEAEDAATYYCHQRSGYPYTFGGGTKVEIKRTVAAPSVFIFPPSDEQLKSGTASVVCLLNNFYPREAKVQWKVDNALQSGNSQESVTEQDSKDSTYSLSSTLTLSKADYEKHKVYACEVTHQGLSSPVTKSFNRGEC
notes: It has anti-EpCAM V regions, human IgG1 CH1 and CH2, and human Ckappa; also called antibody heavy chain (no IL-2)
B1: the binding result in series [1] and in series [2] was “binds” throughout.

Turning to B2, the binding result in series [3] is “no binding”.

B3: Fc(GA(f0) SEED) (designed binder)
chain: EPKSSDKTHTCPPCPAPELLGGPSVFLFPPKPKDTLMISRTPEVTCVVVDVSHEDPEVKFNWYVDGVEVHNAKTKPREEQYNSTYRVVSVLTVLHQDWLNGKEYKCKVSNKALPAPIEKTISKAKGQPREPQVYTLPPPSEELALNELVTLTCLVKGFYPSDIAVEWLQGSQELPREKYLTWAPVLDSDGSFFLYSILRVAAEDWKKGDTFSCSVMHEALHNHYTQKSLDRSPGK
notes: also called "Full" GA SEED; Fc(GA SEED)
For the molecule B3, the binding result in series [4] and in series [5] was “binds” throughout.

B4: Fc(GA(s0) SEED) (designed binder)
chain: EPKSSDKTHTCPPCPAPELLGGPSVFLFPPKPKDTLMISRTPEVTCVVVDVSHEDPEVKFNWYVDGVEVHNAKTKPREEQYNSTYRVVSVLTVLHQDWLNGKEYKCKVSNKALPAPIEKTISKAKGQPREPQVYTLPPPSEELALNNQVTLTCLVKGFYPSDIAVEWESNGQPEPREKYLTWAPVLDSDGSFFLYSILRVDASRWQQGNVFSCSVMHEALHNHYTQKSLSLSPGK
notes: It was put together from the cloning scheme: the Ngo MIV/Sma I fragment for the SEED replaces that of CH3 in the pdCs Fc vector; also called "Surface" GA SEED; GA SURF
B4: the binding result in series [6] and in series [7] was “binds” throughout.
